Assays:
pdc6i_human PDCD6IP = pdc6i_human PDCD6IP (UniProt Q8WUM4)
atg12_mouse Atg12 = atg12_mouse Atg12 (UniProt Q9CQY1)
Sequence of atg12_mouse Atg12 (Q9CQY1 whole entry): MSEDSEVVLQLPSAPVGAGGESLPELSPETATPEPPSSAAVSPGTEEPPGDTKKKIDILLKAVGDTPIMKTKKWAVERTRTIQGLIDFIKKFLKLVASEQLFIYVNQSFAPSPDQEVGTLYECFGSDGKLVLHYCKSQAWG

Sequence of Ubiquitin-like-conjugating enzyme ATG3 (Mus musculus), Q9CPX6 K243R (Q9CPX6 whole entry K243R): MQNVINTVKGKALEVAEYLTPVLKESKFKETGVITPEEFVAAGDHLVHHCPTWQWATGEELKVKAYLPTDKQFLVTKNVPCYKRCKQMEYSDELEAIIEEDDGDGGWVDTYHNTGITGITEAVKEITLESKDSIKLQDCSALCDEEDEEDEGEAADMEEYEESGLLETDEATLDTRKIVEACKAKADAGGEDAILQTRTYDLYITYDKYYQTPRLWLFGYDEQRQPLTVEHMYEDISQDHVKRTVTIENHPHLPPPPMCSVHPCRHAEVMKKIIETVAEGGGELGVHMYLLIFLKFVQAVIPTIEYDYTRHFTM
Sequence of pdc6i_human PDCD6IP (Q8WUM4 whole entry): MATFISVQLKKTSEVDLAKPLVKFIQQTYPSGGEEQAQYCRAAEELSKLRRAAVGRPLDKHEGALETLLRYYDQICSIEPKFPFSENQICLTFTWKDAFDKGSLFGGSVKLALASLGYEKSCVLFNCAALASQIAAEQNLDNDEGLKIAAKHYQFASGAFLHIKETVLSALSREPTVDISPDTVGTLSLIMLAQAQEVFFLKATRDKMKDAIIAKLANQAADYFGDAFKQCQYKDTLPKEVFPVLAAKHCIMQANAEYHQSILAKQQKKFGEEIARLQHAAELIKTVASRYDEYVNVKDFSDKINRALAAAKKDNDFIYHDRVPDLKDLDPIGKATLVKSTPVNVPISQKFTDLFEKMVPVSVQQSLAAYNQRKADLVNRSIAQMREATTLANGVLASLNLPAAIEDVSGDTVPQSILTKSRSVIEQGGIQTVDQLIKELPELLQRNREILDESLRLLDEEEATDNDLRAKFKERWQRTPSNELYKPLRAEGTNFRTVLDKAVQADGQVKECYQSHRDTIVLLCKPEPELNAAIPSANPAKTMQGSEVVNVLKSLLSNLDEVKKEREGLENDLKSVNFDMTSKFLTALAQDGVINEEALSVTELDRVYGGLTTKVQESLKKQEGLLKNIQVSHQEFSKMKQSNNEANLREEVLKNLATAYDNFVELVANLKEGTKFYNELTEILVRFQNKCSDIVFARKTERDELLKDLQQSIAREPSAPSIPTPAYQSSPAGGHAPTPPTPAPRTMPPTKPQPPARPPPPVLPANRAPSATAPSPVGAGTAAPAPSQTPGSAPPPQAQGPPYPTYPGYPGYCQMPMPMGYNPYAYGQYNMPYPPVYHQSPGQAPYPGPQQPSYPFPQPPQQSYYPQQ

effect of a mutation on the interaction (pdc6i_human PDCD6IP): disrupting interaction strength
effect of a mutation on the interaction (atg12_mouse Atg12): disrupting interaction strength
Substance: Ubiquitin-like-conjugating enzyme ATG3 (Mus musculus), Q9CPX6 K243R

— IntAct's records for PubMed 25686249
